These results are taken from WO2018095932A1 (dated 2018).

The target of assay [1] is T1, Human FGFR1 D2-His6 (human, UniProt P11362 22-254).
T1 construct: also called D2 domain; wild-type D2
T1 sequence: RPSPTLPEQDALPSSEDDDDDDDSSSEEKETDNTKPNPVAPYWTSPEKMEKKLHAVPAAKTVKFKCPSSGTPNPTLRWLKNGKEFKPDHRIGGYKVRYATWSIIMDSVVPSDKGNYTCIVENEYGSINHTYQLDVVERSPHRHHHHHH
The assay is described as follows: ELISA.

Assay [2] has as its target T2, human FGFR1b-IIIb extracellular domain with a His tag (human).
T2 construct: also called huFGFR1b-IIIb; FGFR1-IIIb
T2 chain: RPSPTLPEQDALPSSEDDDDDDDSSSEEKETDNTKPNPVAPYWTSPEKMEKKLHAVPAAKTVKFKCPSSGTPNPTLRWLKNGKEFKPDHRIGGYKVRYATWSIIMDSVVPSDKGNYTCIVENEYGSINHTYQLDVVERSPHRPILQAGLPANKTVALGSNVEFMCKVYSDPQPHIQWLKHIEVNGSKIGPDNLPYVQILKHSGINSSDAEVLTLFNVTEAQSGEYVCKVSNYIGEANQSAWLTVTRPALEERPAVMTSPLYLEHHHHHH
The assay is described as follows: ELISA. Background: ELISA stands for enzyme-linked immunosorbent assay.

In assay [3] the target is FGFR1 of NCI-H520 cells (UniProt P11362 22-822). Nature of the assay: cell-based or functional assay.
For assay [4], the target named is T3, human FGFR1b-IIIc extracellular domain with a His tag (human, UniProt P11362 22-376).
T3 construct: also called huFGFR1b-IIIc; FGFR1-IIIc
T3 sequence: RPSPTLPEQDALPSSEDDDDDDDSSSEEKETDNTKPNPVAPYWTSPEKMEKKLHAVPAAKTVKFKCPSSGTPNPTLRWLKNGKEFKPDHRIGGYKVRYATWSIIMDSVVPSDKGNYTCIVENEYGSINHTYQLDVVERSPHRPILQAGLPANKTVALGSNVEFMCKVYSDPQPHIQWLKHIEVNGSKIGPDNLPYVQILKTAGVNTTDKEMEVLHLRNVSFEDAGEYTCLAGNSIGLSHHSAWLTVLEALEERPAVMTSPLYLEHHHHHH
The assay is described as follows: SPR (BIAcore 4000), antibody captured by anti-human Fc, His-tagged FGFR1 injected.

In assay [5] the target is T2, human FGFR1b-IIIb extracellular domain …. Nature of the assay: ELISA, IgG1 format.
Assay [6] addresses T3, human FGFR1b-IIIc extracellular domain …. Nature of the assay: ELISA, IgG1 format.
The target of assay [7] is T4, human FGFR1 (FGFR1b-IIIb or FGFR1b-IIIc, not stated which) (human, UniProt P11362 22-376).
T4 chain: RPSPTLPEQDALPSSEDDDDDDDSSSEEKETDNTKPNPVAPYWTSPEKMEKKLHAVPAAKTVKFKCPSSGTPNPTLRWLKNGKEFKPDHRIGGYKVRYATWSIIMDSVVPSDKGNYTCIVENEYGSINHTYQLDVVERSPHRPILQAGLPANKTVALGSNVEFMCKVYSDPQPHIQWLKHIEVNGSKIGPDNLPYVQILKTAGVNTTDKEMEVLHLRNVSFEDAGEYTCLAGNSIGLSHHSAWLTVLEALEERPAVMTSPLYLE
Nature of the assay: ELISA on coated human FGFR1b (IIIb or IIIc, not stated which).

The target of assay [8] is T4, human FGFR1 (FGFR1b-IIIb or …). The assay is described as follows: ELISA on coated human FGFR1b (IIIb or IIIc, not stated which), IgG1 format.
Assay [9] has as its target T2, human FGFR1b-IIIb extracellular domain …. The assay is described as follows: SPR (BIAcore 4000), antibody captured by anti-human Fc, His-tagged FGFR1 injected. For orientation: In SPR one partner is held on a chip, and binding of the other changes the refractive index at the surface.

A word on the Kd: it is the free concentration of one partner at which half of the binding sites on the other are occupied at equilibrium, for simple one-to-one binding. The low end stands for a tighter complex, the high end for a looser complex. Broadly, the EC50 is the midpoint of the concentration-response curve.

Numbering of substitutions follows the chain as printed.

Sequence of FGFR1 of NCI-H520 cells (P11362 22-822): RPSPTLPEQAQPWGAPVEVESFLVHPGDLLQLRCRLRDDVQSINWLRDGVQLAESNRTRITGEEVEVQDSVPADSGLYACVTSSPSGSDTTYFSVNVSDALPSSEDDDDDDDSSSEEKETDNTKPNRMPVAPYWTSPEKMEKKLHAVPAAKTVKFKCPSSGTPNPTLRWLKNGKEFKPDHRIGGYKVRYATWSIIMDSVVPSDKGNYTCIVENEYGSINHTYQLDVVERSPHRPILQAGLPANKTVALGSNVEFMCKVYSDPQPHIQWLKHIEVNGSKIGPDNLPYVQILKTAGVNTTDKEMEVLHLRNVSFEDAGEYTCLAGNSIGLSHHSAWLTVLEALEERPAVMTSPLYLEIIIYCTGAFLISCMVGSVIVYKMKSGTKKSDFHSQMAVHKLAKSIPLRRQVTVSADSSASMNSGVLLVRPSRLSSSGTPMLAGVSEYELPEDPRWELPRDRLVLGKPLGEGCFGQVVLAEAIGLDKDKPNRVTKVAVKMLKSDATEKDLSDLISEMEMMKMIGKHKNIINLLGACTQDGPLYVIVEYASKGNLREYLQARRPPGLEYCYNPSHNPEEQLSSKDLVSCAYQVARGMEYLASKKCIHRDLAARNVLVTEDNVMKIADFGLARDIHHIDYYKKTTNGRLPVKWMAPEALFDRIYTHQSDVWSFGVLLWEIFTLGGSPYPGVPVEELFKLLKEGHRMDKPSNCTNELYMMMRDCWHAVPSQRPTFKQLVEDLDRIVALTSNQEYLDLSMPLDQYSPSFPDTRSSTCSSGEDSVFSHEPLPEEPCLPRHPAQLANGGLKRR

B1: mAb #A05 (#A05 hit), anti-FGFR1 antibody (antibody, IgG1, V domains shown)
VH: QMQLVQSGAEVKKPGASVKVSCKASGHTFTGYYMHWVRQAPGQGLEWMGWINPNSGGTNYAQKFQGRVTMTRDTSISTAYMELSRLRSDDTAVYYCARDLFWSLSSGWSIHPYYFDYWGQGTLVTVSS
VL: QSALTQPASVSGSPGQSITISCTGTSSDVGSYNLVSWYQQHPGKAPKLMIYGGSKRPSGVPDRFSGSKSDTSASLTISGLQAEDEADYYCCSYTYNGDVFGTGTKVTVL
notes: also called imAb #A05
Turning to B1, the binding result in [1] is listed as “no binding”. In assay [2], the binding result is “binds”. Moreover, in [3], the “IC50 of inhibition of FGF1-induced pFGFR1 in NCI-H520 cells” value turned out to be 1 nM and the “IC50 of inhibition of FGF2-induced pFGFR1 in NCI-H520 cells” value came to 1 nM. This molecule also gave a Kd in assay [4] of 10 pM.

B2: mAb #A02 in the IgG1 format (antibody, V domains shown)
VH: QVQLQESGPGLVKPSGTLSLTCAVSGGSISSNNWWSWVRQPPGKGLEWIGEIYHSGSTSYNPSLKSRVTISVDKSKNQFSLKLSSVTAADTAVYYCARATDWFDLWGQGTLVTVSS
VL: SYVLTQPPSVSVAPGQTARITCGGNNIGSESVHWYQQKPGQAPVLVVYDDSDRPSGIPERFSGSNSGNTATLTISRVEAGDEADYYCQVWDSTSDHRVFGGGTKLTVL
For the molecule B2, the binding result in assay [5] and in assay [6] was “binds” throughout.

B3: mAb #D01 in the IgG1 format (antibody, V domains shown)
VH: B2 VH with L105H
VL: SYVLTQPPSVSVAPGQTARITCGGNNIGSESVHWYQQKPGQAPVLVVYDDSDRPSGIPERFSGSNSGNTATLTISRVEAGDEADYYCQVWDSTSDHRVFGGGTKLTVLG
Consider B3, for which the EC50 in assay [7] amounted to 15 pM.

B4: #A08 lead IgG1 antibody (bivalent) (antibody, V domains shown)
VH: B2 VH with Q1E, A99G, L105P
VL: B3 VL
notes: also called lgG1 (bivalent) format of #A08; #A08 lead-lgG1 m3 antibody
B4: the EC50 in [8] was found to be 8 pM.

B5: mAb #A08 (#A08 hit), anti-FGFR1 antibody (antibody, V domains shown)
VH: B2 VH with Q1E, S84N, A99G, L105P
VL: B2 VL with S1Q, Y2A
notes: also called imAb #A08; clone #A08
B5: in assay [3], the “IC50 of inhibition of FGF1-induced pFGFR1 in NCI-H520 cells” value is 4 nM and the “IC50 of inhibition of FGF2-induced pFGFR1 in NCI-H520 cells” value worked out at 0.2 nM. In addition, the affinity in assay [9], expressed as Kd, was 10 pM. The same molecule returned a dissociation constant (Kd) in assay [4] of 17 pM.

B6: mAb #C01 in the IgG1 format (antibody, V domains shown)
VH: B2 VH with L105A
VL: B2 VL
Regarding B6, the binding result in assay [5] and in [6] was “binds” throughout.

B7: monovalent SEEDbody #A08 (antibody)
heavy: EVQLQESGPGLVKPSGTLSLTCAVSGGSISSNNWWSWVRQPPGKGLEWIGEIYHSGSTSYNPSLKSRVTISVDKSKNQFSLKLSSVTAADTAVYYCARGTDWFDPWGQGTLVTVSSASTKGPSVFPLAPSSKSTSGGTAALGCLVKDYFPEPVTVSWNSGALTSGVHTFPAVLQSSGLYSLSSVVTVPSSSLGTQTYICNVNHKPSNTKVDKRVEPKSCDKTHTCPPCPAPELLGGPSVFLFPPKPKDTLMISRTPEVTCVVVDVSHEDPEVKFNWYVDGVEVHNAKTKPREEQYNSTYRVVSVLTVLHQDWLNGKEYKCKVSNKALPAPIEKTISKAKGQPFRPEVHLLPPSREEMTKNQVSLTCLARGFYPKDIAVEWESNGQPENNYKTTPSRQEPSQGTTTFAVTSKLTVDKSRWQQGNVFSCSVMHEALHNHYTQKTISLSPG
chain: EPKSSDKTHTCPPCPAPELLGGPSVFLFPPKPKDTLMISRTPEVTCVVVDVSHEDPEVKFNWYVDGVEVHNAKTKPREEQYNSTYRVVSVLTVLHQDWLNGKEYKCKVSNKALPAPIEKTISKAKGQPREPQVYTLPPPSEELALNELVTLTCLVKGFYPSDIAVEWLQGSQELPREKYLTWAPVLDSDGSFFLYSILRVAAEDWKKGDTFSCSVMHEALHNHYTQKSLDRSPG
light: SYVLTQPPSVSVAPGQTARITCGGNNIGSESVHWYQQKPGQAPVLVVYDDSDRPSGIPERFSGSNSGNTATLTISRVEAGDEADYYCQVWDSTSDHRVFGGGTKLTVLGQPKAAPSVTLFPPSSEELQANKATLVCLISDFYPGAVTVAWKADSSPVKAGVETTTPSKQSNNKYAASSYLSLTPEQWKSHKSYSCQVTHEGSTVEKTVAPTECS
On to B7, for which, in [3], the “IC50 of inhibition of FGF1-induced pFGFR1 in NCI-H520 cells” value was found to be 70 nM; the “IC50 of inhibition of FGF2-induced pFGFR1 in NCI-H520 cells” value worked out at 6 nM; the “IC50 of inhibition of pFGFR1 in NCI-H520 cells in the absence of ligand” value was 20 nM; the “fold change of pFGFR1 inhibition IC50, monovalent against bivalent format” value is about 10 fold.
